Laboratory results published in the MegaScale stability set (Tsuboyama et al. 2023).

B1: r16_88_TrROS_Hall (parent)
chain: EVIELKIKFKTPEQREKLKEIAKKLNAEVVEEKDGEVIIRFKTPEQAERALKEAEKLGAEVEL

Variants of: B1
Assay: folding stability dG (cDNA display proteolysis); higher = more stable
Settings: PBS, room temperature

Row | Variant | folding stability dG [kcal/mol]
1 | EVIELKIKFKTPEQREKLKEIAKKLNAEVVEEKDGEVIFRFKTPEQAERALKEAEKLGAEVEL [I39F] | 4.92
2 | EVIELKIKFKTPEQREKLKEIAKKLNAEVVEEKDGEVIARFKTPEQAERALKEAEKLGAEVEL [I39A] | 4.41
3 | EVIELKIKFKTPEQREKLKEIAKKLNAEVVEEKDGEVICRFKTPEQAERALKEAEKLGAEVEL [I39C] | 4.35
4 | EVIELKIKFKTPEQREKLKEIAKKLNAEVVEEKDGEVIERFKTPEQAERALKEAEKLGAEVEL [I39E] | 2.69
5 | EVIELKIKFKTPEQREKLKEIAKKLNAEVVEEKDGEVIDRFKTPEQAERALKEAEKLGAEVEL [I39D] | 0.533
6 | EVIELKIKFKTPEQREKLKEIAKKLNAEVVEEKDGEVIGRFKTPEQAERALKEAEKLGAEVEL [I39G] | 3.23
7 | EVIELKIKFKTPEQREKLKEIAKKLNAEVVEEKDGEVSIRFKTPEQAERALKEAEKLGAEVEL [I38S] | 4.26
8 | EVIELKIKFKTPEQREKLKEIAKKLNAEVVEEKDGEVNIRFKTPEQAERALKEAEKLGAEVEL [I38N] | 4.24
9 | EVIELKIKFKTPEQREKLKEIAKKLNAEVVEEKDGEVYIRFKTPEQAERALKEAEKLGAEVEL [I38Y] | 4.76
10 | EVIELKIKFKTPEQREKLKEIAKKLNAEVVEEKDGEVEIRFKTPEQAERALKEAEKLGAEVEL [I38E] | 3.67
11 | EVIELKIKFKTPEQREKLKEIAKKLNAEVVEEKDGEVWIRFKTPEQAERALKEAEKLGAEVEL [I38W] | 4.96
12 | EVIELKIKFKTPEQREKLKEIAKKLNAEVVEEKDGEVRIRFKTPEQAERALKEAEKLGAEVEL [I38R] | 4.28
13 | EVIELKIKFKTPEQREKLKEIAKKLNAEVVEEKDGEVGIRFKTPEQAERALKEAEKLGAEVEL [I38G] | 3.78
14 | EVIELKIKFKTPEQREKLKEIAKKLNAEVVEEKDGEVQIRFKTPEQAERALKEAEKLGAEVEL [I38Q] | 4.33
15 | EVIELKIKFKTPEQREKLKEIAKKLNAEVVEEKDGEVMIRFKTPEQAERALKEAEKLGAEVEL [I38M] | 4.51
16 | EVIELKIKFKTPEQREKLKEIAKKLNAEVVEEKDGEVPIRFKTPEQAERALKEAEKLGAEVEL [I38P] | 1.19
17 | EVIELKIKFKTPEQREKLKEIAKKLNAEVVEEKDGEVVIRFKTPEQAERALKEAEKLGAEVEL [I38V] | 4.44
18 | EVIELKIKFKTPEQREKLKEIAKKLNAEVVEEKDGEVFIRFKTPEQAERALKEAEKLGAEVEL [I38F] | 4.96
19 | EVIELKIKFKTPEQREKLKEIAKKLNAEVVEEKDGEVTIRFKTPEQAERALKEAEKLGAEVEL [I38T] | 4.44
20 | EVIELKIKFKTPEQREKLKEIAKKLNAEVVEEKDGEVCIRFKTPEQAERALKEAEKLGAEVEL [I38C] | 4.3
21 | EVIELKIKFKTPEQREKLKEIAKKLNAEVVEEKDGEVHIRFKTPEQAERALKEAEKLGAEVEL [I38H] | 4.63
22 | EVIELKIKFKTPEQREKLKEIAKKLNAEVVEEKDGEVKIRFKTPEQAERALKEAEKLGAEVEL [I38K] | 3.82

Row | Variant | folding stability dG [kcal/mol]
23 | EVIELKIKFKTPEQREKLKEIAKKLNAEVVEEKDGEVAIRFKTPEQAERALKEAEKLGAEVEL [I38A] | 4.26
24 | EVIELKIKFKTPEQREKLKEIAKKLNAEVVEEKDGEVLIRFKTPEQAERALKEAEKLGAEVEL [I38L] | 4.25
25 | EVIELKIKFKTPEQREKLKEIAKKLNAEVVEEKDGEVDIRFKTPEQAERALKEAEKLGAEVEL [I38D] | 3.82
26 | EVIELKIKFKTPEQREKLKEIAKKLNAEVVEEKDGEFIIRFKTPEQAERALKEAEKLGAEVEL [V37F] | 4.55
27 | EVIELKIKFKTPEQREKLKEIAKKLNAEVVEEKDGECIIRFKTPEQAERALKEAEKLGAEVEL [V37C] | 4.19
28 | EVIELKIKFKTPEQREKLKEIAKKLNAEVVEEKDGEKIIRFKTPEQAERALKEAEKLGAEVEL [V37K] | 3.31
29 | EVIELKIKFKTPEQREKLKEIAKKLNAEVVEEKDGETIIRFKTPEQAERALKEAEKLGAEVEL [V37T] | 4.32
30 | EVIELKIKFKTPEQREKLKEIAKKLNAEVVEEKDGEQIIRFKTPEQAERALKEAEKLGAEVEL [V37Q] | 4.07
31 | EVIELKIKFKTPEQREKLKEIAKKLNAEVVEEKDGEMIIRFKTPEQAERALKEAEKLGAEVEL [V37M] | 4.33
32 | EVIELKIKFKTPEQREKLKEIAKKLNAEVVEEKDGENIIRFKTPEQAERALKEAEKLGAEVEL [V37N] | 3.52
33 | EVIELKIKFKTPEQREKLKEIAKKLNAEVVEEKDGEHIIRFKTPEQAERALKEAEKLGAEVEL [V37H] | 4.38
34 | EVIELKIKFKTPEQREKLKEIAKKLNAEVVEEKDGEDIIRFKTPEQAERALKEAEKLGAEVEL [V37D] | 3.02
35 | EVIELKIKFKTPEQREKLKEIAKKLNAEVVEEKDGELIIRFKTPEQAERALKEAEKLGAEVEL [V37L] | 4.39
36 | EVIELKIKFKTPEQREKLKEIAKKLNAEVVEEKDGEEIIRFKTPEQAERALKEAEKLGAEVEL [V37E] | 3.36
37 | EVIELKIKFKTPEQREKLKEIAKKLNAEVVEEKDGEWIIRFKTPEQAERALKEAEKLGAEVEL [V37W] | 4.36
38 | EVIELKIKFKTPEQREKLKEIAKKLNAEVVEEKDGEIIIRFKTPEQAERALKEAEKLGAEVEL [V37I] | 4.39
39 | EVIELKIKFKTPEQREKLKEIAKKLNAEVVEEKDGEPIIRFKTPEQAERALKEAEKLGAEVEL [V37P] | 2.49
40 | EVIELKIKFKTPEQREKLKEIAKKLNAEVVEEKDGEYIIRFKTPEQAERALKEAEKLGAEVEL [V37Y] | 4.14
41 | EVIELKIKFKTPEQREKLKEIAKKLNAEVVEEKDGEGIIRFKTPEQAERALKEAEKLGAEVEL [V37G] | 3.63
42 | EVIELKIKFKTPEQREKLKEIAKKLNAEVVEEKDGERIIRFKTPEQAERALKEAEKLGAEVEL [V37R] | 3.03
43 | EVIELKIKFKTPEQREKLKEIAKKLNAEVVEEKDGESIIRFKTPEQAERALKEAEKLGAEVEL [V37S] | 4.19
